{"source": "patent US20200054764A1", "about": "“MEDICAL USE OF ANTI-C MET ANTIBODY-CYTOTOXIC DRUG CONJUGATE” (priority 2016, published 2020)", "key": {"[1]": {"test_system": "MKN45 cells", "experiment": "FACS binding to cell line MKN45, which highly expresses c-Met", "parameters": "species or system human", "conditions": "flow cytometry, read-out: MKN45/FCAS Binding activity", "method": "A FACS method was used to detect the binding activity of c-Met humanized antibodies with the cell line MKN45, which highly expresses c-Met.\nMKN45 cells (JCRB, Cat No.: JCRB0254) were resuspended in RPMI1640 medium (GIBCO, Cat No.: 11835-030) which contains 10% (v/v) fetal calf serum (FBS GIBCO, Cat No.: 10099-141) and Penicillin/Streptomycin (GIBCO, Cat No.: 15070-063) to reach 10,000,000 cells/mL. 2 mL of resuspended MKN45 cells was added to 96-well microtiter plate (Corning, Cat No.: 3799) at 150,000 cells/well, and 8 concentrations of c-Met antibody (5-fold gradient diluted, starting from 20 μg/mL) were added to the corresponding wells, and the final volume was 100 μL. The plate was incubated for 1 hour at 4° C. FACS buffer (PBS comprising 2.5% (v/v) FBS (Hyclone, Cat: SH30256.01B)) was added. The plate was centrifuged under 4° C. at 1300 rmp for 4 minutes, and the supernatant was discarded. This procedure was repeated three times. 100 μL of secondary antibodies (Fluorescence labeled goat-anti-mouse secondary antibodies with 1:200 dilution, Biolegend, Cat No. 405307; Fluorescence labeled anti-human secondary antibody with 1:30 dilution, Biolegend, Cat No. 409304) were added to each well, and the plate was incubated for 1 hour at 4° C. […] FACS buffer was added to resuspend the cells, and the prepared samples were detected by flow cytometry (BD FACS Array)."}, "[2]": {"target": "T1, c-Met antigen Sema-His (Homo sapiens, UniProt P08581)", "T1 construct": "Flag (C); His tag (6xHis) (C); made in house; host or cells: 293F cells (Invitrogen, Cat # R790-07); vector pEE6.4; c-Met gene template origene RC217003", "T1 sequence (P08581 with tags, fused parts or gaps limits assumed)": "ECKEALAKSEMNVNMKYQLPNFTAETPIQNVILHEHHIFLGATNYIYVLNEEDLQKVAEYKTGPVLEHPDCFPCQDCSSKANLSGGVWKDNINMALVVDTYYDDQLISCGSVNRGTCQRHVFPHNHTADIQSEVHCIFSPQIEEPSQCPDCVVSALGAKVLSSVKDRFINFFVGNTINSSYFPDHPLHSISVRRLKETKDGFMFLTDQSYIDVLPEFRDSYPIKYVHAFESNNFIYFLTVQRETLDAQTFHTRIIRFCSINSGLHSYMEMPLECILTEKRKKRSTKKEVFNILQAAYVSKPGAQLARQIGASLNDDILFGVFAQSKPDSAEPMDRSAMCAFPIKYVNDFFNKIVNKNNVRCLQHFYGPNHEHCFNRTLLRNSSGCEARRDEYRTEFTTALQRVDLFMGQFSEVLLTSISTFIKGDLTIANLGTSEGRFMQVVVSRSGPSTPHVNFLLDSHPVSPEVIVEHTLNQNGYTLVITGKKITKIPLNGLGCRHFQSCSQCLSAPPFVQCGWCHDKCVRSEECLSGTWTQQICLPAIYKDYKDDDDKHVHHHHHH", "experiment": "SPR (BIACore) affinity to c-Met antigen", "type": "binding", "conditions": "1:1 Langmuir model", "method": "The affinity of c-Met antibody to c-Met antigen Sema-His was detected by surface plasmon resonance (SPR) in the invention.\nAnti-mouse IgG (GE Life Sciences catalog # BR-1008-38) or anti-human IgG (GE Life Sciences catalog # BR-1008-39) antibodies were respectively diluted to 30 μg/mL and 50 μg/mL by sodium acetate solution pH 5.0 (GE Healthcare, Cat # BR-1003-51). An amino coupling kit (GE Life Sciences, Cat # BR100050) […] the test channels and control channels on a CM5 chip (GE Life Sciences catalog # BR-1000-12), and the coupling level was set at 15000 RU. The c-Met antibody was diluted with Running buffer PBS (Hyclone, Cat # SH30256.01B)+0.05% P20 (GE Life Sciences, Cat # BR-1000-54) to 1.5 μg/mL. Antigen Sema-His was diluted to 200 nM with running buffer, and then diluted at a 1:2 dilution with the same buffer until 0.78 nM was reached. The diluted antibody passed through the test channel for 1 minute at a speed of 30 μL/min, and the antigen passed through the test channels and control channels for 3 minutes at the same speed. 10 minutes after dissociation, the flow speed was adjusted to 10 μL/min, and regeneration buffer was passed through test channels and control channels for 3 minutes. Data was fitted by BiaEvaluation 4.1 after double deduction, and the fitting model was a 1:1 Langmuir model."}, "[3]": {"test_system": "MKN45 cells expressing c-Met", "experiment": "Endocytosis of anti c-Met antibody in MKN45 cells (FACS)", "type": "cell-based, human", "conditions": "MKN45, 10 μg/mL antibody", "excerpt": "Antibodies of the invention bind to human c-Met, and have very good in vitro activity and good activity in inhibiting tumor activity in vivo. […] In order to detect whether the antibodies would be internalized into the cell along with human c-Met once bound to human c-Met, human gastric cancer cell line MKN45 (JCRB, Cat No.: JCRB0254) expressing c-Met was used for evaluation.\nMKN45 cells were resuspended to 10,000,000 cells/mL in RPMI 1640 medium (GIBCO, Cat No.: 11835-030), which contains 10% (v/v) FBS (GIBCO, Cat No.: 10099-141) and penicillin/streptomycin (GIBCO, Cat No.: 15070-063). 2 mL resuspended MKN45 cells were added to a 96-well microtiter plate with 250,000 cells/well, and 10 μg/mL of c-Met antibody was added to the corresponding wells and the final volume was 100 μL. The plate was incubated at 4° C. for 1 hour. FACS buffer (phosphate buffer solution including 2.5% fetal bovine serum; Hyclone, Cat: SH30256.01B) was added and the plate was centrifuged at 4° C., 1300 rpm for 4 minutes. The supernatant was discarded and this procedure was repeated three times. 100 μL secondary antibody solution (Fluorescence labeled goat anti mouse secondary antibodies at 1:200 dilution, Biolegend, Cat #405307; Fluorescence labeled anti-human secondary antibody at 1:30 dilution, Biolegend, Cat #409304) was added into each well. The plate was incubated at 4° C. for 1 hour. FACS buffer was added and the plate was centrifuged at 4° C., 1300 rpm for 4 minutes. The supernatant was discarded and this procedure was repeated three times. Complete cell culture medium (RPMI 1640 medium with 10% FBS) was added and was incubated at 37° C. in 5% CO2 for 0, 0.5, 1, 2, 4 hours. 5 μL 7-AAD (Biolegend, Cat:420403) was added to 100 μL FACS buffer which was added to each well, and the plate was incubated at 4° C. for 30 minutes. FACS buffer was added and the plate was centrifuged at 4° C., 1300 rpm for 4 minutes. The supernatant was discarded and this procedure was repeated three times. 200 μL Stripping buffer (0.05 M glycine, pH 3.0; 0.1 M NaCl, mixed at 1:1 (v/v)) was added to each well. The cells were resuspended and were incubated for 7 minutes at room temperature. The cells were centrifuged at room temperature at 1300 rpm for 4 minutes, and the supernatant was discarded. 200 μL neutralizing wash buffer (0.15M trihydroxymethyl aminomethane, pH 7.4) was added to each well, the cells were resuspended and centrifuged at room temperature at 1300 rpm for 4 minutes, and the supernatant was discarded. 200 μL FACS buffer was added and the cells were resuspended. The prepared samples were detected by flow cytometry (BD FACS Calibur).\nEndocytosis of c-Met antibody %=(intensity of fluorescence at each time point−mean intensity of fluorescence at time 0)/mean intensity of fluorescence at time 0."}}}
{"molecule": "Ab-9 (antibody) heavy: QVTLKESGPVLVKPTETLTLTCTVSGFSLPNYGVHWVRQPPGKALEWLAVIWSGGSTNYAAAFVSRLRISKDTSKSQVVFTMNNMDPVDTATYYCARNHDNPYNYAMDYWGQGTTVTVSSASTKGPSVFPLAPCSRSTSESTAALGCLVKDYFPEPVTVSWNSGALTSGVHTFPAVLQSSGLYSLSSVVTVPSSNFGTQTYTCNVDHKPSNTKVDKTVERKCCVECPPCPAPPVAGPSVFLFPPKPKDTLMISRTPEVTCVVVDVSHEDPEVQFNWYVDGVEVHNAKTKPREEQFNSTFRVVSVLTVVHQDWLNGKEYKCKVSNKGLPAPIEKTISKTKGQPREPQVYTLPPSREEMTKNQVSLTCLVKGFYPSDIAVEWESNGQPENNYKTTPPMLDSDGSFFLYSKLTVDKSRWQQGNVFSCSVMHEALHNHYTQKSLSLSPGK light: DIVLTQSPASLAVSPGQRATITCRANKSVSTSTYNYLHWYQQKPGQPPKLLIYLASNLASGVPARFSGSGSGTDFTLTINPVEANDTANYYCQHSRDLPPTFGQGTKLEIKRTVAAPSVFIFPPSDEQLKSGTASVVCLLNNFYPREAKVQWKVDNALQSGNSQESVTEQDSKDSTYSLSSTLTLSKADYEKHKVYACEVTHQGLSSPVTKSFNRGEC", "values": [{"measurement": "EC50", "setting": "[1]", "value": 1.6, "unit": "nM"}, {"measurement": "Kd", "setting": "[2]", "value": 4, "unit": "nM"}, {"measurement": "endocytosis %", "setting": "[3]; 0 h", "value": 0, "unit": "%"}, {"measurement": "endocytosis %", "setting": "[3]; 0.5 h", "value": 26, "unit": "%"}, {"measurement": "endocytosis %", "setting": "[3]; 1 h", "value": 32, "unit": "%"}, {"measurement": "endocytosis %", "setting": "[3]; 2 h", "value": 32, "unit": "%"}, {"measurement": "endocytosis %", "setting": "[3]; 4 h", "value": 31, "unit": "%"}]}
